Results published in patent US20160251436A1 (PD 1 ACQUISITION GROUP, published 2016).
Changes are numbered by the printed parent chain.

B1: 100413_D2VH9_100414_D2VK6 (antibody, V domains shown)
VH: EVQLQESGPDLVKPSQSLSLTCTVTGYSITSGYSWHWIRQFPGNKLEWMGFIHYSGDTNYNPSLKSRFSITRDTSKNQFFLHLNSVTPEDTATYYCASPSRLLFDYWGHGTTLTVSS
VL: DIVMTQSPSSLTVTAGEKVTMSCKSSQSLLNSGTQKNYLTWYQQKPGQPPKLLIYWASTRESGVPDRFTGSGSGTDFTLTISSVQAEDLAVYYCQNDYSYPLTFGAGTKLEIK
notes: Mouse variable regions; cloned into pFUSE-CHIg-mG1 (murine IgG1 Fc), expressed in HEK293
B2: 100258_C1VH4_100259_C1VK1 (antibody, V domains shown)
VH: EVQLQESGAELVMPGASVKMSCKASGYTFTDYWMHWVKQRPGQGLEWIGAIDTSDSYTSYHQNFKGKATLTEDESSSTAYMQLSSLTSEDSAIYYCARRDYGGFGYWGQGTTLTVSS
VL: DIVITQSPLSLPVGLGDQASISCRSSQSLVHSNGNTYLHWYLQKPGQSPKLLIYKVSNRFSGVPDRFSGSGSGTDFTLKISRVEAEDLGVYFCSQSTHVPYTFGGGTKLEIK
notes: as for B1
B3: 100394_F1VH8_100395_F1VK4 (antibody, V domains shown)
VH: EVQLQESGPELVKPGASVKIPCKASGYTFTDYNMDWVKQSHGKSLEWIGDIDPNNGGTIYNQNFKGKATLTVDKSSSTAYMELRSLTSEDTAVYYCARWRSSMDYWGQGTSVTVSS
VL: DIVLTQSPSSLSASLGDRVTISCSASQGISNYLNWYQQKPDGTVKLLIYYTSSLHSGVPSRFSGSGSGTDYSLTISNLEPEDIATYYCQQYSKLPWTFGGGTKLEIK
notes: as for B1
B4: 100388_C1VH6_100389_C1VK1 (antibody, V domains shown)
VH: B3 VH with T58I, N63K, T69A, A97T
VL: B3 VL with L4M, G28D, N31S, K93E
notes: Mouse variable regions; cloned into pFUSE-CHIg-mG1 (murine IgG1 Fc), expressed in HEK293; also called 388C16A
B5: 100388_C1VH6_100389_C1VK2 (antibody, V domains shown)
VH: B3 VH with T58I, N63K, T69A, A97T
VL: B3 VL with S7T
notes: Mouse variable regions; cloned into pFUSE-CHIg-mG1 (murine IgG1 Fc), expressed in HEK293; also called 388C16B
B6: 100394_D5VH9_100395_D5VK7 (antibody, V domains shown)
VH: B3 VH with K23R, T28I, N63K, G66D, A68T, S77R
VL: B3 VL with L4M, S7T, L11M, K93Y
notes: as for B1
B7: 100388_C1VH2_100389_C1VK2 (antibody, V domains shown)
VH: B3 VH with T58I, N63K, T69A
VL: B3 VL with S7T
notes: Mouse variable regions; cloned into pFUSE-CHIg-mG1 (murine IgG1 Fc), expressed in HEK293; also called 388C12B
B8: 100392_C5VH6_100393_C5VK7 (antibody, V domains shown)
VH: B3 VH with N55S, T58S, N63K, S77R, A79V
VL: B3 VL with L4M, N31H, S76R, K93E
notes: Mouse variable regions; cloned into pFUSE-CHIg-mG1 (murine IgG1 Fc), expressed in HEK293; also called 392C5A
B9: 100394_G1VH1_100395_G1VK4 (antibody, V domains shown)
VH: B3 VH with S40N, G57D, N63K, S77R
VL: B3 VL with L4M, K39R, K93N
notes: as for B1
B10: 100388_C1VH2_100389_C1VK1 (antibody, V domains shown)
VH: B3 VH with T58I, N63K, T69A
VL: B3 VL with L4M, G28D, N31S, K93E
notes: Mouse variable regions; cloned into pFUSE-CHIg-mG1 (murine IgG1 Fc), expressed in HEK293; also called 388C12A
B11: 100392_H4VH9_100393_H4VK6 (antibody, V domains shown)
VH: B3 VH with M34V, I59F, N63K, Y80H, A97V
VL: B3 VL with L4M, S53N, N77D, E79A, K93Y
notes: as for B1
B12: 100392_B4VH10_100393_B4VK10 (antibody, V domains shown)
VH: B3 VH with K13R, K38M, N63K, A97T
VL: B3 VL with L4M, S53N, N77D, E79A, K93Y
notes: as for B1
B13: 100392_C5VH6_100393_C5VK10 (antibody, V domains shown)
VH: B3 VH with N55S, T58S, N63K, S77R, A79V
VL: B3 VL with L4M, P8T, N31H, S76R, K93E
notes: Mouse variable regions; cloned into pFUSE-CHIg-mG1 (murine IgG1 Fc), expressed in HEK293; also called 392C5B
B14: 100392_D2VH7_100393_D2VK6 (antibody, V domains shown)
VH: B3 VH with N55T, G57T, I59F, N63D, V112L
VL: B3 VL with L4M, S7T, N31Y, V44I, S52L, K93E
notes: as for B1
B15: 100392_C4VH5_100393_C4VK8 (antibody, V domains shown)
VH: B3 VH with Q39K, N63K, S77R
VL: B3 VL with L4I, K93E
notes: as for B1
B16: 100388_H4VH1_100389_H4VK4 (antibody, V domains shown)
VH: EVQLQESGPGLVAPSQSLSITCTVSGFSLTNYGVDWVRQSPGKGLEWLGVIWGVGSTNYNSALKSRLSISKDNSKSQVFLKMNSLQTDDTAMYYCASDGFVYWGQGTLVTVSS
VL: DIVLTQDELSNPVTSGESVSISCRSSKSLLYKDGKTYLNWFLQRPGQSPQVLIYFMSTRASGVSDRFSGSGSGTDFTLEISRVKAEDVGVYYCQQLVDFPFTFGSGTKLELK
notes: as for B1
B17: 100392_C3VH7_100393_C3VK10 (antibody, V domains shown)
VH: B16 VH with N31S, V54I, T87S
VL: B16 VL with L4M, S10Y, L111I
notes: as for B1
B18: 100244_C7VH10_100245_C8VK5 (antibody, V domains shown)
VH: EVQLQESGPELVRPGASVKMSCKASGYTFTSYWMHWVKQRPGQGLEWIGMIDPSNSETSLNQKFKDKATLNVDKSSKTAYMQLSSLTSEDSAVYYCARSRGNYAYDMDYWGQGTSVTVSS
VL: DIVITQTTAIMSASPGEKVTLTCSASSSVSSNYLYWYQQRPGSSPKLWIYSTSNLASGVPARFSGSGSGTSYSLTISSMEAEDAASYFCHQWSSYPPTFGSGTKLEIK
notes: as for B1
B19: 100246_F7VH3_100247_F7VK2 (antibody, V domains shown)
VH: B18 VH with S54Y, N55S, S75I, K77N, Y95F
VL: B18 VL with I4L, T7S, S28G, S30N, R40K, M79V
notes: as for B1
B20: 100258_F6VH4_100259_F6VK1 (antibody, V domains shown)
VH: B18 VH with D52E, N55S, K77N, D106E
VL: B18 VL with I4M, I10T, S30N, R40K, L47V, I107L
notes: as for B1
B21: 100258_F6VH4_100259_F6VK1m1 (antibody, V domains shown)
VH: B18 VH with D52E, N55S, K77N, D106E
VL: B18 VL with I4M, T8P, I10T, S30N, R40K, L47V, I107L
notes: Mouse variable regions; cloned into pFUSE-CHIg-mG1 (murine IgG1 Fc), expressed in HEK293; also called 258F6m
B22: 100244_C7VH10_100245_C8VK5m1 (antibody, V domains shown)
VH: B18 VH
VL: B18 VL with I4L, T8P
notes: Mouse variable regions; cloned into pFUSE-CHIg-mG1 (murine IgG1 Fc), expressed in HEK293; also called 244C7m1
B23: 100413_H1VH3_100414_H1VK6 (antibody, V domains shown)
VH: EVQLQESGPSLVQPSQSLSITCTVSGFSLTNYGVHWVRQSPGKGLEWLGVIWRGGNTDYNAAFMSRLSITKDNSKSQVFFKFHSLQTDDTAIYYCAASMIGGYWGQGTTLTVSS
VL: DIVLTQSPLSLPVSLGDQASISCRSSQSIVHSDGNTYLEWYLQKPGQSPKLLIYKVSNRFSGVPDRFSGSGSGTDFTLKISRVEAEDLGIYYCFQGSHVPLTFGAGTKLELK
notes: as for B1
B24: 100392_A6VH8_100393_A6VK5 (antibody, V domains shown)
VH: EVQLQESGAELVRPGASVTLSCKASGYTFTDYEIHWVKQTPVHGLEWIGAIDPETGGTAYNQKFKGKAILTADKSSSTAYMELRSLTSEDSAVYYCTSEKFGSSYYFDYWGQGTTFTVSS
VL: B23 VL with L4M, P8T, A19V, K50N, I90V
notes: as for B1
B25: 100411_C2VH3_100412_C2VK7 (antibody, V domains shown)
VH: EVQLQESGPGLVKPSQSLSLTCTVTGYSITSDYAWNWIRQFPGNKLEWMGYITYSGSPTYNPSLKSQFSITRDTSKNQFFLQLNSVTTEDTATYYCARGLGGHYFDYWGQGTTLTVSS
VL: DIVLTQTTATLSVTPGDRVSLSCRASQSISDYLHWYQQKSHESPRLLIKYASQSISGIPSRFSGSGSGSDFTLTVNSVEPEDVGVYYCQNGHSYPYTFGGGTKLEIK
notes: as for B1

Molecular target: T1, soluble extracellular domain of human PD-1 (human, UniProt Q15116 25-170)
T1 construct: extracellular domain
T1 sequence (Q15116 25-170): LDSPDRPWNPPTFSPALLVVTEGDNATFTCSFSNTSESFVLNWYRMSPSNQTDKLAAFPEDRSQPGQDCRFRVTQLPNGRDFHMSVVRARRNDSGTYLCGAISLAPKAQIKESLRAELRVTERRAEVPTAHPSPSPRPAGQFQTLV
Assay: BLI (ForteBio Octet Red), antibody on the biosensor, soluble PD-1 ECD as analyte
Method: Biophysical characteristics of certain anti-PD-1 antibodies were analyzed by biolayer interferometry (BLI), using the ForteBio Octet Red system (Pall Corporation, Menlo Park, Calif.). The antibodies were immobilized on BLI biosensors and then incubated with the soluble extracellular domain of human PD-1. Using standard biophysics methods, apparent on-rates and off-rates were then inferred for PD-1 with anti-PD-1 antibodies.

| Binder | Kd [nM] | koff [s⁻¹] | kon [M⁻¹ s⁻¹] |
| --- | --- | --- | --- |
| B1 | 8.2 | 0.00226 | 275000 |

Molecular target: T2, PD-1-HIS (human, UniProt Q15116)
T2 construct: soluble extracellular domain; May be the same protein as m2; also called PD-1-HIS(tag); PD-1-His Tag (Sino Biological #10377-H08H-50)
T2 sequence (Q15116 25-167 limits assumed): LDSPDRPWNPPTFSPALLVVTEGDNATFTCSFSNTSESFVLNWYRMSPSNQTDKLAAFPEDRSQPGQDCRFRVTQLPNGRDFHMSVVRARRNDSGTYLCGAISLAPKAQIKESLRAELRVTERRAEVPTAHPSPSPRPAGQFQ
Assay: ELISA, supernatant of transfected HEK293 cells on PD-1-HIS(tag), OD 450 nm, average of two experiments

| Binder | binding result |
| --- | --- |
| B2 | binds |
| B3 | binds |
| B4 | binds |
| B5 | binds |
| B6 | binds |
| B7 | binds |
| B8 | binds |
| B9 | binds |
| B10 | binds |
| B11 | binds |
| B12 | binds |
| B13 | binds |
| B14 | binds |
| B15 | binds |
| B16 | binds |
| B17 | binds |
| B18 | binds |
| B19 | binds |
| B20 | binds |
| B21 | binds |
| B22 | binds |
| B23 | binds |
| B24 | binds |
| B25 | binds |

Molecular target: T3, human Programmed Death-1 (PD-1) expressed on the cell surface (human, UniProt Q15116 25-288)
T3 construct: whole, on cells; also called CD279; Human PD-1 Expressed on HEK293 Surface
T3 sequence (Q15116 25-288): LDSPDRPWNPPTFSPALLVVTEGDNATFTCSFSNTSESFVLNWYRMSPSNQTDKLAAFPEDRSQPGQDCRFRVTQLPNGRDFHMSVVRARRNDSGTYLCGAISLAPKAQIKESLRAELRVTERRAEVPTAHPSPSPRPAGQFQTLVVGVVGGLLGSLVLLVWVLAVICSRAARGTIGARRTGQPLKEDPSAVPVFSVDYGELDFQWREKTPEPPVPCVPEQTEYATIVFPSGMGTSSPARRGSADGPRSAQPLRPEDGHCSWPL
Assay: cell binding, HEK293 cells expressing human PD-1, fluorescent anti-mouse secondary
Method: Recombinant antibodies from cultured supernatants were also used in cell-based binding studies. HEK293 cells were transfected (Qiagen, SuperFect) with expression plasmids encoding the Ig heavy and light chains of anti-PD-1 antibodies. After 3-5 days, recombinant antibodies in the supernatants of transfected cells were harvested. Stable HEK293 cells expressing human PD-1 or primary cells were used for the cell-based binding confirmation studies. Antibodies from cultured supernatants were assessed for binding to cell surface PD-1 using fluorescently labeled anti-mouse IgG (polyclonal) antibody (Jackson Immunoresearch).
In both studies, commercially available mouse anti-PD-1 antibody and isotype control mouse IgG1 […] were used as controls. […] Strong binding is denoted as “+++”, medium binding is denoted as “++”, and weak binding is denoted as “+”.

| Binder | binding result |
| --- | --- |
| B2 | binds |
| B4 | binds |
| B5 | binds |
| B6 | binds |
| B7 | binds |
| B8 | binds |
| B9 | binds |
| B10 | binds |
| B11 | binds |
| B13 | binds |
| B14 | binds |
| B15 | binds |
| B18 | binds |
| B19 | binds |
| B20 | binds |
| B21 | binds |
| B22 | binds |
| B24 | binds |
| B25 | binds |
